Series [1] can be described thus: Gel-like condensate formation of NANOG CTD. The format is physicochemical, human. The conditions noted are these: absence of crowding agents.
Series [2] is described as follows: ThT fluorescence aggregation kinetics of NANOG CTD. It counts as physicochemical, human.

B1: NANOG CTD: C-terminal domain construct of human NANOG, contains the WR prion-like domain (protein)
chain: QKNNWPKNSNGVTQKASAPTYPSLYSSYHQGCLVNPTGNLPMWSNQTWNNSTWSNQTQNIQSWSNHSWNTQTWCTQSWNNQAWNSPFYNCGEESLQSCMQFQPNSPASDLEAALEAAGEGLNVIQQTTRYFSTPQTMDLFLNYSMNMQPEDV
B1: the “concentration at which gel-like condensates form” value in series [1] is 5 µM. The “ThT aggregation time constant (1/R)” value was 4.8 ± 0.2 min in series [2] (1.2 μM CTD (n=9)) and 9.5 ± 0.1 min in series [2] (2.4 μM CTD (n=6)).

Values taken from US20240383953A1, “NOVEL NAN[…] NANOG PRION-LIKE REPEATS” (BAYLOR COLLEGE OF MEDICINE, priority 2021, published 2024).
